T1: human LGR6 (leucine-rich repeat containing, G protein-coupled receptor 6) with a Flag-tag at the N-terminus, … (human, UniProt Q9HBX8-3 25-967)
T1 construct: human LGR6, predicted mature form AA25-967 of NP_001017403; The CD8 signal peptide replaces LGR6's own; also called Flag-LGR6; LGR6 WT; source: HEK293T cells, transiently transfected (reporter assays); not shown: Flag, N-terminal, kept
T1 sequence (looked up): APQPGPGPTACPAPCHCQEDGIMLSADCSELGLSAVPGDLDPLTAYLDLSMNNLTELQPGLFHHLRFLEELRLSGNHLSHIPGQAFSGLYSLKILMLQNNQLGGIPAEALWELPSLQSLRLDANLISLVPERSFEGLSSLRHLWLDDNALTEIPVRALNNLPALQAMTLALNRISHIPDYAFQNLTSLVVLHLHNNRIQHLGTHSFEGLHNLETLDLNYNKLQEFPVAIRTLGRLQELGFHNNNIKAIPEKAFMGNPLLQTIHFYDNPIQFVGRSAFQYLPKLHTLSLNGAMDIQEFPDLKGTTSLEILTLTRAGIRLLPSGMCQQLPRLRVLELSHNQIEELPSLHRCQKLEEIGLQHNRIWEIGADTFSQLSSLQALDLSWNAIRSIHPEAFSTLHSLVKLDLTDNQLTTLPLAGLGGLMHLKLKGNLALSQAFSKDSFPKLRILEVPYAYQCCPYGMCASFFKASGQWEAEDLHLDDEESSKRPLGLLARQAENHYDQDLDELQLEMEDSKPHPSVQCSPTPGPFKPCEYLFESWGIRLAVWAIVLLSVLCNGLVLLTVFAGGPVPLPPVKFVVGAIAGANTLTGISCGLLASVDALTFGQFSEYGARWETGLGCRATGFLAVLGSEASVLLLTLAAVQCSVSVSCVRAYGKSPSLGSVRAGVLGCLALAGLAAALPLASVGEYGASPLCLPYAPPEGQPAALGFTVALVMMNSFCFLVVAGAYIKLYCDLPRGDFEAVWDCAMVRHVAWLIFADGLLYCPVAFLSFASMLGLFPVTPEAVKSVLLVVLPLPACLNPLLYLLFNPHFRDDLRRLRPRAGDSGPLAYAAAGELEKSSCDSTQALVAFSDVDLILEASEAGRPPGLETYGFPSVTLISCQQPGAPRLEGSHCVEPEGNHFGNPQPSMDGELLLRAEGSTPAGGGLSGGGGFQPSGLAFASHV


Columns and labels:
[1] = biological target: T1, human LGR6 (leucine-rich repeat …); test: whole-cell-based competition binding assay; HEK293 cells stably expressing Flag-LGR6 incubated with mRSPO1-Fc plus serial dilutions of purified recombinant RSPO1–4; maximum specific binding is the difference with and without mRSPO1-Fc; conditions: one partner purified
[2] = biological target: T1, human LGR6 (leucine-rich repeat …); test: cell-based or functional assay

Row | IC50 [1] [nM] | Super TOPflash β-catenin reporter in HEK293T cells transfected with LGR6 or vector, serial dilutions of RSPO1 with Wnt3a CM: gain in potency of RSPO1 [2] [fold] | Binder
1 | 7 |  | purified recombinant R-spondin 4 (ligand, UniProt Q2I0M5 20-234, looked up, R-spondin 4 (RSPO4); also called RSPO4; source: purified recombinant) LNRRKKQVGTGLGGNCTGCIICSEENGCSTCQQRLFLFIRREGIRQYGKCLHDCPPGYFGIRGQEVNRCKKCGATCESCFSQDFCIRCKRQFYLYKGKCLPTCPPGTLAHQNTRECQGECELGPWGGWSPCTHNGKTCGSAWGLESRVREAGRAGHEEAATCQVLSESRKCPIQRPCPGERSPGQKKGRKDRRPRKDRKLDRRLDVRPRQPGLQP
2 | 1.7 |  | purified recombinant R-spondin 3 (ligand, UniProt Q9BXY4 22-272, looked up, R-spondin 3 (RSPO3); also called RSPO3; source: purified recombinant) QNASRGRRQRRMHPNVSQGCQGGCATCSDYNGCLSCKPRLFFALERIGMKQIGVCLSSCPSGYYGTRYPDINKCTKCKADCDTCFNKNFCTKCKSGFYLHLGKCLDNCPEGLEANNHTMECVSIVHCEVSEWNPWSPCTKKGKTCGFKRGTETRVREIIQHPSAKGNLCPPTNETRKCTVQRKKCQKGERGKKGRERKRKKPNKGESKEAIPDSKSLESSKEIPEQRENKQQQKKRKVQDKQKSVSVSTVH
3 | 3.3 | ~30 | purified recombinant R-spondin 1 (ligand, UniProt Q2MKA7 21-263, looked up, R-spondin 1 (RSPO1); also called RSPO1; source: purified recombinant) SRGIKGKRQRRISAEGSQACAKGCELCSEVNGCLKCSPKLFILLERNDIRQVGVCLPSCPPGYFDARNPDMNKCIKCKIEHCEACFSHNFCTKCKEGLYLHKGRCYPACPEGSSAANGTMECSSPAQCEMSEWSPWGPCSKKQQLCGFRRGSEERTRRVLHAPVGDHAACSDTKETRRCTVRRVPCPEGQKRRKGGQGRRENANRNLARKESKEAGAGSRRRKGQQQQQQQGTVGPLTSAGPA
4 | 0.5 |  | purified recombinant R-spondin 2 (ligand, UniProt Q6UXX9 22-243, looked up, R-spondin 2 (RSPO2); also called RSPO2; source: purified recombinant) QGNRWRRSKRASYVSNPICKGCLSCSKDNGCSRCQQKLFFFLRREGMRQYGECLHSCPSGYYGHRAPDMNRCARCRIENCDSCFSKDFCTKCKVGFYLHRGRCFDECPDGFAPLEETMECVEGCEVGHWSEWGTCSRNNRTCGFKWGLETRTRQIVKKPVKDTILCPTIAESRRCKMTMRHCPGGKRTPKAKEKRNKKKKRKLIERAQEQHSVFLATDRANQ

From publication PMC3355120, “LGR6 Is a High Affinity Receptor of R-Spondins and Potentially Functions as a Tumor Suppressor” (PLoS ONE, 2012)
